In test [1] the target is T1, Peptide fragment KL19.
T1 construct: Used as ELISA coating antigen
T1 peptide: KEQPDPGAVAAAAILRAIL
Description: indirect ELISA, peptide as coating antigen.

Test [2] concerns the target T2, Peptide fragment KS24.
T2 construct: It contains VLQS; Used as ELISA coating antigen
T2 peptide: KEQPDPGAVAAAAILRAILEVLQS
Description: indirect ELISA, peptide as coating antigen.

B1: KA-001 monoclonal antibody (antibody, mouse IgG1, kappa, V domains shown)
VH: DVKIVESGGGLVKLGGSLKLSCAASGFTFSRNYMSWVRQTPEKRLELVAGINNNGGSTYYPDTVKGRFTISRDNAKNTLYLQMSSLRSEDTAIYYCAKRGFITTVGAMDYWGQGISVTVSS
VL: DIQMTQTTFSLSASLGDRVTISCRASQDISNYLNWYQQIPDGTVKLLIYYTSRLHSGVPSRFSGSGSGTDYSLTISNLEQEDIATYFCQQVHTLPYTFGGGTKLEMKR
notes: also called antibody KA-001
As for B1, the binding result in test [1] is “no binding”; in test [2], “binds”.

The values are drawn from EP4613777A1 (Guangdong Keyangle Life Technology Co., Ltd., dated 2025).
